# Data from article PMC6072280 (Nuclear medicine and biology, 2018).
# What was measured:
# [1] = system: PC-3 tumor-bearing SCID mice
# [2] = in vivo; conditions: male, ICR-SCID, mouse, iv, total radioactivity; for tissue uptake at 1 h / tissue uptake at 4 h / tissue uptake at 24 h: 20 μCi
# [3] = molecular target: GRPR (Homo sapiens, UniProt P30550); conditions: GRPR-expressing human PC-3 cells, 125I-[Tyr4]-BBN, 1 h 37°C
# Sequence of GRPR (P30550 whole entry): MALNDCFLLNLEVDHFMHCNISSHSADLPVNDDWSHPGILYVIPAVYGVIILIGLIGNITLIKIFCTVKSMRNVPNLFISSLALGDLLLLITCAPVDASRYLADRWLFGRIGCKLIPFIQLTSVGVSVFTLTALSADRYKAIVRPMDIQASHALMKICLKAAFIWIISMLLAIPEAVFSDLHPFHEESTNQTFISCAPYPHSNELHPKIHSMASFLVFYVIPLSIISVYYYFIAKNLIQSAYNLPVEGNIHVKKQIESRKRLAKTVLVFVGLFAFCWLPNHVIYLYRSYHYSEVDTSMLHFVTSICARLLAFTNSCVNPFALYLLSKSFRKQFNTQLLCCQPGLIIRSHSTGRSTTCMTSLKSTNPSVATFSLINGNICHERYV
compound,measurement,setting,value
"CC(C)C[C@H](NC(=O)C[C@H](O)[C@H](CC(C)C)NC(=O)[C@H](Cc1c[nH]cn1)NC(=O)CNC(=O)[C@@H](NC(=O)[C@H](C)NC(=O)[C@H](Cc1c[nH]c2ccccc12)NC(=O)[C@H](CCC(N)=O)NC(=O)[C@@H](Cc1ccccc1)NC(=O)CCCCCNC(=O)[C@H](CCC(=O)NCCCC[C@@H]1NC(=O)[C@@H](Cc2ccc(O)cc2)NC(=O)[C@H](CC(=O)O)NC(=O)CNC(=O)[C@H](CCCNC(=N)N)NC1=O)NC(=O)CN1CCN(CC(=O)O)CCN(CC(=O)O)CCN(CC(=O)O)CC1)C(C)C)C(N)=O [[RGD-Glu-[[^90Y]Y-DO3A]-6-Ahx-RM2], metal not drawn]","Biodistribution, Urine (urinary excretion)","[1]; 4 h p.i., i.v., n = 5",93.4 %ID
same,"In vivo stability, RP-HPLC of urinary radioactivity",[1]; urine collected from tumor-bearing mice,eluted with a similar retention time
same,tissue uptake at 1 h,[2]; bone,0.45 ± 0.08 %ID/g
same,tissue uptake at 4 h,[2]; bone,0.29 ± 0.05 %ID/g
same,tissue uptake at 24 h,[2]; bone,0.33 ± 0.12 %ID/g
same,tissue uptake at 1 h,[2]; brain,0.03 ± 0.01 %ID/g
same,tissue uptake at 4 h,[2]; brain,0.01 %ID/g
same,tissue uptake at 1 h,[2]; heart,0.31 ± 0.06 %ID/g
same,tissue uptake at 4 h,[2]; heart,0.16 ± 0.05 %ID/g
same,tissue uptake at 24 h,[2]; heart,0.15 ± 0.04 %ID/g
same,tissue uptake at 1 h,[2]; kidneys,2.36 ± 0.49 %ID/g
same,tissue uptake at 4 h,[2]; kidneys,1.54 ± 0.31 %ID/g
same,tissue uptake at 24 h,[2]; kidneys,0.89 ± 0.21 %ID/g
same,tissue uptake at 1 h,[2]; large intestine,0.64 ± 0.12 %ID/g
same,tissue uptake at 4 h,[2]; large intestine,0.66 ± 0.26 %ID/g
same,tissue uptake at 24 h,[2]; large intestine,0.31 ± 0.06 %ID/g
same,tissue uptake at 1 h,[2]; liver,0.39 ± 0.08 %ID/g
same,tissue uptake at 4 h,[2]; liver,0.35 ± 0.07 %ID/g
same,tissue uptake at 24 h,[2]; liver,0.29 ± 0.15 %ID/g
same,tissue uptake at 1 h,[2]; lung,0.8 ± 0.27 %ID/g
same,tissue uptake at 4 h,[2]; lung,0.44 ± 0.06 %ID/g
same,tissue uptake at 24 h,[2]; lung,0.37 ± 0.1 %ID/g
same,tissue uptake at 1 h,[2]; muscle,0.22 ± 0.06 %ID/g
same,tissue uptake at 4 h,[2]; muscle,0.11 ± 0.02 %ID/g
same,tissue uptake at 24 h,[2]; muscle,0.1 ± 0.03 %ID/g
same,tissue uptake at 1 h,[2]; pancreas,6.81 ± 0.92 %ID/g
same,tissue uptake at 4 h,[2]; pancreas,0.55 ± 0.12 %ID/g
same,tissue uptake at 24 h,[2]; pancreas,0.27 ± 0.05 %ID/g
same,tissue uptake at 1 h,[2]; small intestine,1.41 ± 0.32 %ID/g
same,tissue uptake at 4 h,[2]; small intestine,0.39 ± 0.09 %ID/g
same,tissue uptake at 24 h,[2]; small intestine,0.34 ± 0.07 %ID/g
same,tissue uptake at 1 h,[2]; spleen,1.36 ± 0.25 %ID/g
same,tissue uptake at 4 h,[2]; spleen,1.07 ± 0.18 %ID/g
same,tissue uptake at 24 h,[2]; spleen,1.21 ± 0.23 %ID/g
same,tissue uptake at 1 h,[2]; stomach,1.19 ± 0.34 %ID/g
same,tissue uptake at 4 h,[2]; stomach,0.33 ± 0.07 %ID/g
same,tissue uptake at 24 h,[2]; stomach,0.22 ± 0.03 %ID/g
same,tissue uptake at 1 h,[2]; tumor (PC-3 xenograft),8.7 ± 0.35 %ID/g
same,tissue uptake at 4 h,[2]; tumor (PC-3 xenograft),4.48 ± 0.31 %ID/g
same,tissue uptake at 24 h,[2]; tumor (PC-3 xenograft),5.28 ± 0.12 %ID/g
same,dose excreted at 1 h,"[2]; urine, 20 uCi",84.6 ± 3.52%
same,dose excreted at 4 h,"[2]; urine, 20 uCi",93.4 ± 1.26%
same,dose excreted at 24 h,"[2]; urine, 20 uCi",92.7 ± 2.06%
same,tissue uptake dose at 1 h,"[2]; whole blood, 20 uCi",0.18 ± 0.04 %ID
same,tissue uptake dose at 4 h,"[2]; whole blood, 20 uCi",0.01 %ID
same,tissue uptake dose at 24 h,"[2]; whole blood, 20 uCi",0.01 %ID
CC(C)C[C@H](NC(=O)C[C@H](O)[C@H](CC(C)C)NC(=O)[C@H](Cc1c[nH]cn1)NC(=O)CNC(=O)[C@@H](NC(=O)[C@H](C)NC(=O)[C@H](Cc1c[nH]c2ccccc12)NC(=O)[C@H](CCC(N)=O)NC(=O)[C@@H](Cc1ccccc1)NC(=O)CCCCCNC(=O)[C@H](CCC(=O)NCCCC[C@@H]1NC(=O)[C@@H](Cc2ccc(O)cc2)NC(=O)[C@H](CC(=O)O)NC(=O)CNC(=O)[C@H](CCCNC(=N)N)NC1=O)NC(=O)CN1CCN(CC(=O)O)CCN(CC(=O)O)CCN(CC(=O)O)CC1)C(C)C)C(N)=O [[RGD-Glu-[DO3A]-6-Ahx-RM2]] [[Cyclo-(Arg-Gly-Asp-DTyr-Lys)-(DO3A)-Glu-(6-Ahx-D-Phe-Gln-Trp-Ala-Val-Gly-His-Sta-Leu-NH2)]],"IC50, PC-3",[3],"single-digit, nanomolar range"
